Experiment [1] addresses T1, snRNP200 (endogenous, from THP-1 cells) (human, UniProt O75643 1-2136).
T1 construct: also called U5-snRNP
As to the kind of experiment: immunoprecipitation from THP-1 membrane lysate, Western blot with mouse-anti-human snRNP200. On the procedure: FIG. 20A. THP-1 membrane lysate was incubated with AT12-023 and AT13-031, with the influenza-specific antibody AT10-002 or with marker alone.
THP-1 cells were lysed and precleared with an irrelevant antibody (in-house generated RSV antibody D25) and beads to remove non specific binding proteins. Precleared lysate was then incubated with bead-labeled AML-specific antibodies or with the influenza specific antibody AT10-002 as a negative control (3 hrs at 4° C.). Antibody-incubated lysates were washed five times, bound proteins were eluted from the THP-1 lysate and then run on an SDS-PAGE gel. Proteins were blotted and stained with Ponseau S to reveal total protein. The blot was blocked with BSA and incubated with mouse-anti-snRNP200 (Millipore, clone 3B6.1) or Rabbit-anti-HMGB1 (Abcam) for Western blot analysis. Intracelllar staining for snRNP200 was performed after fixing and permeabilizing THP-1 cells with methanol (Sigma) and permeabilization buffer containing triton X-100 (Sigma), EDTA (Gibco) and BSA (Roche), followed by incubation with rabbit-anti-human snRNP200 antibody (Sigma) overnight at 4° C.
For orientation: A western blot detects proteins with antibodies after separation by electrophoresis.

In the next experiment the target is T2, snRNP200-flag construct (UniProt O75643 1-2136, limits assumed).
T2 construct: mature; Used as lysate at 3 ug/ml, not purified; also called full-length snRNP200 with an N-terminal FLAG tag; not shown: N-terminal FLAG tag
Description: capture ELISA: antibody coated, snRNP200-flag lysate (3 ug/ml) captured, anti-flag HRP detection. On the procedure: FIG. 20B. AML specific antibodies AT12-019, AT12-023, AT13-031 and AT13-037 or commercially available snRNP200-specific antibodies snRNP200 453 and snRNP200 454 were coated on an ELISA plate, incubated with a snRNP200-flag construct for capturing and with anti-flag HRP for detection.
HEK 293T cells were transfected with an expression vector containing the full-length open reading frame of snRNP200 with an N-terminal FLAG tag. At 2 days after transfection cells were harvested and lysed in lysis buffer containing protease inhibitors. This lysate was cleared and protein concentration was measured. AML specific antibodies AT12-019, AT12-023, AT13-031 and AT13-037 or commercially available snRNP200 specific antibodies (Bethyl labs) were then coated on an ELISA plate. The lysate was added at a concentration of 3 μg/ml for capturing. After extensive washing, captured snRNP200-flag was detected with a monoclonal mouse anti-flag HRP antibody (Sigma-Aldrich, clone M2).
In general terms: In an ELISA, binding on a coated surface is turned into a signal by an enzyme label.

T2 sequence (O75643 whole entry): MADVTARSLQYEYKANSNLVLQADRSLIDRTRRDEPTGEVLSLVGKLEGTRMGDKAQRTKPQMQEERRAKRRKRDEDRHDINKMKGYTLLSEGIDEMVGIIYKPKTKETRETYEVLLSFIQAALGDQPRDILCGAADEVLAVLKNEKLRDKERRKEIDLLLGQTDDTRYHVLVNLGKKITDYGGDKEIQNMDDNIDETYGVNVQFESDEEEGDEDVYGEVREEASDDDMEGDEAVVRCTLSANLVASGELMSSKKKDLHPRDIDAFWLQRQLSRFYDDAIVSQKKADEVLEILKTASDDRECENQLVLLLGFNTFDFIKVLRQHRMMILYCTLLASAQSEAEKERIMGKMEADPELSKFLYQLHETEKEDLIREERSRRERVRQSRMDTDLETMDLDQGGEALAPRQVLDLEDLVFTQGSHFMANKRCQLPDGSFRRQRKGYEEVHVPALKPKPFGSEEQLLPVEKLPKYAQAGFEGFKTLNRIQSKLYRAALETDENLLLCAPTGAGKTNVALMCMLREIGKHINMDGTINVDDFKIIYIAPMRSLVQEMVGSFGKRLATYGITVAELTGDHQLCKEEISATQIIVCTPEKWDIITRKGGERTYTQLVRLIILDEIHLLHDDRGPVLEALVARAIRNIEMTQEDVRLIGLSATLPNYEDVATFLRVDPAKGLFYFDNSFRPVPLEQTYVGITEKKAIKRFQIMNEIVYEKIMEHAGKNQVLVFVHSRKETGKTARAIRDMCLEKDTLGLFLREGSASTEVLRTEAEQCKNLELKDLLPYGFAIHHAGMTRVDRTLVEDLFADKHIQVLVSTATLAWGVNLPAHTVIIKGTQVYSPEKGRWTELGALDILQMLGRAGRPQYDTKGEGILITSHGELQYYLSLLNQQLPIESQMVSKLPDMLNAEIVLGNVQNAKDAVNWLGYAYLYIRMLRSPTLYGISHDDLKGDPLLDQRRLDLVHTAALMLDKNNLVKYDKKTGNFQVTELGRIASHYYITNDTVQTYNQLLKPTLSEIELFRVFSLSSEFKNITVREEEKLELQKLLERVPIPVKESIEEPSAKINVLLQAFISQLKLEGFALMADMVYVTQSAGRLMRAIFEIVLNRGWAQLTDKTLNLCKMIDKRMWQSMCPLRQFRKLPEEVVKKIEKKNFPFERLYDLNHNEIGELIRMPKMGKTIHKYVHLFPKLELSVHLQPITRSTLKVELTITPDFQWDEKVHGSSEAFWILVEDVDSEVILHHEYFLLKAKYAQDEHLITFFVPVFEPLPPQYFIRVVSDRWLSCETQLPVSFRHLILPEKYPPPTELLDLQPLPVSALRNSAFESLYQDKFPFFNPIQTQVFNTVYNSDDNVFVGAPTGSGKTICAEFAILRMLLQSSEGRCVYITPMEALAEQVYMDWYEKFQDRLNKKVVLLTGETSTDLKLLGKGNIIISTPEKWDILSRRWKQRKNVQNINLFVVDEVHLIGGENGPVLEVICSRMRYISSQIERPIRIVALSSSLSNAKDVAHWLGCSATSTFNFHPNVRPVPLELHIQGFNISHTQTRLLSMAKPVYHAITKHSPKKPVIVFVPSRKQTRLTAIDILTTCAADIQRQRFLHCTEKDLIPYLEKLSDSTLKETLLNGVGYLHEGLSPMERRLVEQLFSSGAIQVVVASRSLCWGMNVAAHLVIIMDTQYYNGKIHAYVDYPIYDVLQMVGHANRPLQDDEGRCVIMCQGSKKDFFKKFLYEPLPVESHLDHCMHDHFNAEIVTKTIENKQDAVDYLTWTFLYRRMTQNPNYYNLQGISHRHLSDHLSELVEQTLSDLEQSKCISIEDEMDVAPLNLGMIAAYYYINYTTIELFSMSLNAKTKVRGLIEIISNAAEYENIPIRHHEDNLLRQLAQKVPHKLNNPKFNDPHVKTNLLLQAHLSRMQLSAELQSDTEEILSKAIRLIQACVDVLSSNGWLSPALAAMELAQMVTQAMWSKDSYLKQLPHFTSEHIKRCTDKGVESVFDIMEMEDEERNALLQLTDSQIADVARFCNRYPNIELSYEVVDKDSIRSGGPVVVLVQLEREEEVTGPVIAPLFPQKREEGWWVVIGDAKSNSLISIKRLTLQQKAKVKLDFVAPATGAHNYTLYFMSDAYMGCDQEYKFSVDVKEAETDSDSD
T1 sequence (O75643 whole entry): as above

B1: AT12-023 (antibody, V domains shown)
VH: QVQLQQWGAGLLKPSETLSLTCAVYGGSFSGYYWSWIRQPPGKGLEWIGEINHSGSTNYNPSLKSRVTISVDTSKNQFSLKLSSVTAADTAVYYCARGRSTSPLDYYYYYMDVWAKGTTVTVSS
VL: SSELTQDPAVSVALGQTVRITCQGDFLRSYYASWYQQKPGQAPVLVIFGKNKRPSGIPDRFSGSSSGNTASLTITGAQAEDEADYYCNSRDRSGNHLVFGGGTKLTVL
notes: Human antibody from AML patient donor 59; also called antibody AT12-023
Turning to B1, the binding result in experiment [1] is “binds”.

B2: AT12-019 (antibody, IgG1, V domains shown)
VH: EVHLLESGGGLVQPGGSLRLSCAASGFTFSSYAMSWVRQAPGKGLEWVSTIRASGGSTSYADSVKGRFTISRDNSQSRLYLQMNSLTAEDTAVYYCAKSPAMIRGVRGGDYFDYWGQGTLVTVSS
VL: AIRLTQSPSSVSASTGDRVTITCRASQAFSSYLVWYQQKPGKAPNLLIYATSTLQGGVPSRFSGSGSGTDFTLTISNLQSEDFATYYCQQYYSYPPTFGQGTKLEIK
notes: Human antibody from AML patient donor 59; also called antibody AT12-019
Turning to B2, the binding result with snRNP200-flag construct is recorded as “no binding”.

For the origin of these results see patent US20200239593A1 (AIMM THERAPEUTICS B V, published 2020).
